For experiment [1], the target named is T1, soluble recombinant human IL-6 receptor (SR344) (human, UniProt P08887 20-344).
T1 construct: range 1-344; also called soluble IL-6 receptor; soluble human IL-6 receptor
T1 sequence (looked up): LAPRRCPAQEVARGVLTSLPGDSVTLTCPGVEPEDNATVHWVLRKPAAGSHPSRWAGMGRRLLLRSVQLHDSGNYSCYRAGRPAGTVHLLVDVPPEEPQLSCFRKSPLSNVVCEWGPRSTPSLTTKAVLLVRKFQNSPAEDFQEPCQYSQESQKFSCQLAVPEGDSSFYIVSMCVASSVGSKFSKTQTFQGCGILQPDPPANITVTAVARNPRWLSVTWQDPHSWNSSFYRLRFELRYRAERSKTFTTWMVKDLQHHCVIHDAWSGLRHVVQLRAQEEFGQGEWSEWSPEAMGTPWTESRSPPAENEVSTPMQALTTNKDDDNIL
The experiment in a line: SPR Biacore T100; immobilised biotinylated SR344 as membrane-type IL-6 receptor; against TOCILIZUMAB
Procedure: (§1) The binding to membrane-type IL-6 receptor was assessed by evaluating the binding to soluble human IL-6 receptor immobilized onto the sensor chip. SR344 was biotinylated by a method known to those skilled in the art. Based on the affinity between biotin and streptavidin, biotinylated soluble human IL-6 receptor was immobilized onto the sensor chip via streptavidin. All measurements were conducted at 37° C. The mobile phase buffer was 10 mM MES (pH 5.8), 150 mM NaCl, and 0.05% Tween 20. […] The dissociation rate constant (kd (1/s)) at pH 5.8 was calculated using Biacore T100 Evaluation Software (GE Healthcare) by fitting only the dissociation phase at pH 5.8. The sample concentration was 0.25 pg/ml. Binding was carried out in 10 mM MES (pH 7.4), 150 mM NaCl, and 0.05% Tween 20, and dissociation was carried out in 10 mM MES (pH 5.8), 150 mM NaCl, and 0.05% Tween 20. Likewise, the dissociation rate constant (kd (1/s)) at pH 7.4 was calculated using Biacore T100 Evaluation Software (GE Healthcare) by fitting only the dissociation phase at pH 7.4. The sample concentration was 0.5 pg/ml. Binding was carried out in 10 mM MES (pH 7.4), 150 mM NaCl, and 0.05% Tween 20, and dissociation was carried out in 10 mM MES (pH 7.4), 150 mM NaCl, and 0.05% Tween 20.

For experiment [2], the target named is T1, soluble recombinant human IL-6 receptor …. Put plainly: SPR Biacore T100, 37 C; biotinylated SR344 immobilised via streptavidin as membrane-type IL-6 receptor; ratio of dissociation rates.
Procedure: as §1

Changes are numbered by the printed parent chain.

B1: H3pI/L73 (antibody, human IgG1, kappa, V domains shown)
VH: QVQLQESGPGLVKPSETLSLTCAVSGHSISHDHAHSWVRQPPGEGLEWIGYISYSGITNYNPSLKGRVTISRDTSKNQFSLKLSSVTAADTAAYYCARSLARTTAMDYWGEGTLVTVSS
VL: DIQMTQSPSSLSASVGDSVTITCQASQHISSHLNWYQQKPGKAPELLIYYGSHLHSGVPSRFSGSGSGTDFTFTISSLEAEDAATYYCGQGNRLPYTFGQGTKVEIER
notes: also called H3pI-IgG1/L73-kappa
For the molecule B1, the “fold increase of pH dependence of the dissociation rate against TOCILIZUMAB” value in experiment [1] was roughly 2.6 times.

B2: Fv3-M73 (antibody, V domains shown)
VH: QVQLQESGPGLVKPSETLSLTCAVSGHSISHDHAWSWVRQPPGEGLEWIGFISYSGITNYNPTLQGRVTISRDNSKNTLYLQMNSLRAEDTAVYYCARSLARTTAMDYWGEGTLVTVSS
VL: B1 VL with Q27R, H28D, H55L
notes: Fully humanized IL-6 receptor antibody; also called VH4-M73/VL1-kappa
For the molecule B2, in experiment [1], the “fold improvement of pH dependency of the dissociation rate against TOCILIZUMAB” value is roughly 11 times. Besides, the “kd(pH 5.8)/kd(pH 7.4) pH …” value in experiment [2] came to 10.9.

B3: Fv4-M73 (antibody, V domains shown)
VH: B2 VH with T63S
VL: B1 VL with Q27T, H28D, H55L
notes: Fully humanized IL-6 receptor antibody; also called VH3-M73/VL3-kappa
Take B3: the “fold improvement of pH dependency of the dissociation rate against TOCILIZUMAB” value in experiment [1] was roughly 10 times. For the same molecule, the “kd(pH 5.8)/kd(pH 7.4) pH …” value in experiment [2] turned out to be 10.1.

B4: TOCILIZUMAB (antibody, human IgG1, kappa)
heavy: not shown
light: not shown
notes: Humanized anti-IL-6 receptor IgG1 antibody; H chain WT-IgG1, L chain WT-kappa; also called TOCILIZUMAB-IgG1; WT-IgG1/WT-kappa
As to B4, the “kd(pH 5.8)/kd(pH 7.4) pH …” value in experiment [2] came to 1.

These data come from patent US20200231688A1 (published 2020).
